Experimental data: the supplement of paper PMC5998384

Tests used:
[1] = tested on: HeLa Kyoto; assay: melting temperature (median over replicates), in situ; higher = more thermally stable
[2] = tested on: HeLa Kyoto; assay: solubility change mitosis vs G1/S (difference of NP-40 vs SDS log2 ratios) (log2 ratio difference); higher = more soluble in mitosis
[3] = tested on: HeLa Kyoto; assay: solubility in G1/S (NP-40 vs SDS abundance) (log2 ratio); higher = more soluble; settings: cell cycle stage: G1/S
[4] = tested on: HeLa Kyoto; assay: thermal stability score vs G1/S (z-score of summed log2 fold changes over temperatures); higher = more thermally stable than in G1/S
[5] = cell cycle stage: early G1 (4.5 h after nocodazole release)
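Wherever melting temperature (median over replicates), in situ is given: HeLa Kyoto cells synchronized by double thymidine or nocodazole block, proteins quantified by TMT10plex mass spectrometry, three independent biological replicates.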
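Wherever solubility change mitosis vs G1/S (difference of NP-40 vs SDS log2 ratios) is given: synchronized HeLa Kyoto cells (double thymidine block for G1/S, nocodazole release for mitosis), protein amounts in NP-40 versus SDS lysates quantified by mass spectrometry, three biological replicates.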
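Wherever solubility in G1/S (NP-40 vs SDS abundance) is given: HeLa Kyoto cells arrested at G1/S by double thymidine block, proteins quantified by TMT10plex mass spectrometry in mild NP-40 versus SDS extracts, three biological replicates.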
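Wherever thermal stability score vs G1/S (z-score of summed log2 fold changes over temperatures) is given: synchronized HeLa Kyoto cells, proteins quantified by TMT10plex mass spectrometry, three biological replicates, mitosis taken 0.5 h after nocodazole release, G1/S directly after double thymidine block.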

Sequence | melting temperature ([1]; cell cycle stage: G1/S) | melting temperature ([1]; cell cycle stage: mitosis) | solubility change mitosis (log2) [2] | solubility in G1/S (log2) [3] | thermal stability score [4, 5] | thermal stability score ([4]; cell cycle stage: mitosis)
MSHPSWLPPKSTGEPLGHVPARMETTHSFGNPSISVSTQQPPKKFAPVVAPKPKYNPYKQPGGEGDFLPPPPPPLDDSSALPSISGNFPPPPPLDEEAFKVQGNPGGKTLEERRSSLDAEIDSLTSILADLECSSPYKPRPPQSSTGSTASPPVSTPVTGHKRMVIPNQPPLTATKKSTLKPQPAPQAGPIPVAPIGTLKPQPQPVPASYTTASTSSRPTFNVQVKSAQPSPHYMAAPSSGQIYGSGPQGYNTQPVPVSGQCPPPSTRGGMDYAYIPPPGLQPEPGYGYAPNQGRYYEGYYAAGPGYGGRNDSDPTYGQQGHPNTWKREPGYTPPGAGNQNPPGMYPVTGPKKTYITDPVSAPCAPPLQPKGGHSGQLGPSSVAPSFRPEDELEHLTKKMLYDMENPPADEYFGRCARCGENVVGEGTGCTAMDQVFHVDCFTCIICNNKLRGQPFYAVEKKAYCEPCYINTLEQCNVCSKPIMERILRATGKAYHPHCFTCVMCHRSLDGIPFTVDAGGLIHCIEDFHKKFAPRCSVCKEPIMPAPGQEETVRIVALDRDFHVHCYRCEDCGGLLSEGDNQGCYPLDGHILCKTCNSARIRVLTAKASTDL | 55.6 °C | 54.4 °C | -0.115 | 0.203 | -2.33 | -1.52
MSHTEVKLKIPFGNKLLDAVCLVPNKSLTYGIILTHGASGDMNLPHLMSLASHLASHGFFCLRFTCKGLNIVHRIKAYKSVLNYLKTSGEYKLAGVFLGGRSMGSRAAASVMCHIEPDDGDDFVRGLICISYPLHHPKQQHKLRDEDLFRLKEPVLFVSGSADEMCEKNLLEKVAQKMQAPHKIHWIEKANHSMAVKGRSTNDVFKEINTQILFWIQEITEMDKKCH [TEX30] | 48.7 °C | 49 °C | -0.146 | 0.199 | 0.36 | 0.539
MSKGTSSDTSLGRVSRAAFPSPTAAEMAEISRIQYEMEYTEGISQRMRVPEKLKVAPPNADLEQGFQEGVPNASVIMQVPERIVVAGNNEDVSFSRPADLDLIQSTPFKPLALKTPPRVLTLSERPLDFLDLERPPTTPQNEEIRAVGRLKRERSMSENAVRQNGQLVRNDSLWHRSDSAPRNKISRFQAPISAPEYTVTPSPQQARVCPPHMLPEDGANLSSARGILSLIQSSTRRAYQQILDVLDENRRPVLRGGSAAATSNPHHDNVRYGISNIDTTIEGTSDDLTVVDAASLRRQIIKLNRRLQLLEEENKERAKREMVMYSITVAFWLLNSWLWFRR [MFF] | 51.6 °C | 52.6 °C | -0.00278 | 0.532 | 0.544 | 1.39
MSKLKSSESVRVVVRCRPMNGKEKAASYDKVVDVDVKLGQVSVKNPKGTAHEMPKTFTFDAVYDWNAKQFELYDETFRPLVDSVLQGFNGTIFAYGQTGTGKTYTMEGIRGDPEKRGVIPNSFDHIFTHISRSQNQQYLVRASYLEIYQEEIRDLLSKDQTKRLELKERPDTGVYVKDLSSFVTKSVKEIEHVMNVGNQNRSVGATNMNEHSSRSHAIFVITIECSEVGLDGENHIRVGKLNLVDLAGSERQAKTGAQGERLKEATKINLSLSALGNVISALVDGKSTHIPYRDSKLTRLLQDSLGGNAKTVMVANVGPASYNVEETLTTLRYANRAKNIKNKPRVNEDPKDALLREFQEEIARLKAQLEKRSIGRRKRREKRREGGGSGGGGEEEEEEGEEGEEEGDDKDDYWREQQEKLEIEKRAIVEDHSLVAEEKMRLLKEKEKKMEDLRREKDAAEMLGAKIKAMESKLLVGGKNIVDHTNEQQKILEQKRQEIAEQKRREREIQQQMESRDEETLELKETYSSLQQEVDIKTKKLKKLFSKLQAVKAEIHDLQEEHIKERQELEQTQNELTRELKLKHLIIENFIPLEEKSKIMNRAFFDEEEDHWKLHPITRLENQQMMKRPVSAVGYKRPLSQHARMSMMIRPEARYRAENIVLLELDMPSRTTRDYEGPAIAPKVQAALDAALQDEDEIQVDASSFESTANKKSKARPKSGRKSGSSSSSSGTPASQLYPQSRGLVPK [KIF3B] | 50.3 °C | 50.3 °C | -0.0759 | 0.0133 | 0.792 | 0.328
